From US20160194391A1 (AstraZeneca / MedImmune, published 2016)
Read-outs that look alike come from different tables or passages of the source. One block for each binder: values may come before it.

Legend:
[1] = target: T1, human dimeric IL-23 (eBiosciences 34-8239) (human, UniProt P29460 23-328; Q9NPF7 20-189); assay: cell-based or functional assay
T1 sequence (looked up) 1: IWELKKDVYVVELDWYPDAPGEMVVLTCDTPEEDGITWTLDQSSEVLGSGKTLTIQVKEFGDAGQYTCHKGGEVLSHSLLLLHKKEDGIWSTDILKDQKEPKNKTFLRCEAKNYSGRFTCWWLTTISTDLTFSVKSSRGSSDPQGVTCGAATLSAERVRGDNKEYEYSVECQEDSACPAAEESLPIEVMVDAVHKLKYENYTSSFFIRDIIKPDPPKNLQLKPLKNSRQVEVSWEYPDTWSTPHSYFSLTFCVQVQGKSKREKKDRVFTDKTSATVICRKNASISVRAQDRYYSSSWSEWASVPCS
T1 sequence (looked up) 2: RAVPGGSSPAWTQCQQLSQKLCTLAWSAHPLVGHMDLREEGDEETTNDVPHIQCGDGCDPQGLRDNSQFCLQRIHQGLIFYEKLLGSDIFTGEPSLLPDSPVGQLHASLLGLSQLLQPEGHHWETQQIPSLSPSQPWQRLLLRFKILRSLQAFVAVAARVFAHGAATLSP

[2] = target: T1, human dimeric IL-23 (eBiosciences …); assay: cell-based or functional assay; remark: listed apart in the source
human IL-12 [3] = target: T2, human IL-12 (human, UniProt P29459 23-219; P29460 23-328); assay: IL-12 binding assay of the selection not described
T2 construct: Bioassay used Prospec-Tany Cyt-362
T2 sequence (looked up) 1: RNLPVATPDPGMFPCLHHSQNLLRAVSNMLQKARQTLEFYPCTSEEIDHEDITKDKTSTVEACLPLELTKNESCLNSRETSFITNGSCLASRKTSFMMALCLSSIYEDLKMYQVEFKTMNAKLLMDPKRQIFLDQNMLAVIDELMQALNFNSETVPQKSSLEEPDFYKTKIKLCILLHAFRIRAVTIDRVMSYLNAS
T2 sequence (looked up) 2: T1 sequence (looked up) 1

IL-23 p40-p19-His = target: T3, IL-23 p40-p19-His (human); assay: ELISA on IL-23 p40-p19-His
T3 construct: Single-chain fusion coated on the IL-23 ELISA plates; also called p40:p19-6×HIS
T3 chain: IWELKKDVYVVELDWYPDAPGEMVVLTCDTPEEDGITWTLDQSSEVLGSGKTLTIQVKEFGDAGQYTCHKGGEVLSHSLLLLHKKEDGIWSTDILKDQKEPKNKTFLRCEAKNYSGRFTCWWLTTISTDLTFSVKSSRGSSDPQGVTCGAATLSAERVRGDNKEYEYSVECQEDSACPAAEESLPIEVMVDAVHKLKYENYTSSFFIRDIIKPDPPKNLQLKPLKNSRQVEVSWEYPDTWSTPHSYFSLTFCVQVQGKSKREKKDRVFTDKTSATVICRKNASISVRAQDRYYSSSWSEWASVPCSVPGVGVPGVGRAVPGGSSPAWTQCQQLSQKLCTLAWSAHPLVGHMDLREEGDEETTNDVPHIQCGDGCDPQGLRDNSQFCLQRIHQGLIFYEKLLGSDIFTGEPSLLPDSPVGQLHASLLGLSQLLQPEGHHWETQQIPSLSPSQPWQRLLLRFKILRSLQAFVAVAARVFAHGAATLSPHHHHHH

[4] = target: T4, primate IL-23 (p40:p19 fusion, 6×HIS) (primate); assay: cell-based or functional assay
T4 chain: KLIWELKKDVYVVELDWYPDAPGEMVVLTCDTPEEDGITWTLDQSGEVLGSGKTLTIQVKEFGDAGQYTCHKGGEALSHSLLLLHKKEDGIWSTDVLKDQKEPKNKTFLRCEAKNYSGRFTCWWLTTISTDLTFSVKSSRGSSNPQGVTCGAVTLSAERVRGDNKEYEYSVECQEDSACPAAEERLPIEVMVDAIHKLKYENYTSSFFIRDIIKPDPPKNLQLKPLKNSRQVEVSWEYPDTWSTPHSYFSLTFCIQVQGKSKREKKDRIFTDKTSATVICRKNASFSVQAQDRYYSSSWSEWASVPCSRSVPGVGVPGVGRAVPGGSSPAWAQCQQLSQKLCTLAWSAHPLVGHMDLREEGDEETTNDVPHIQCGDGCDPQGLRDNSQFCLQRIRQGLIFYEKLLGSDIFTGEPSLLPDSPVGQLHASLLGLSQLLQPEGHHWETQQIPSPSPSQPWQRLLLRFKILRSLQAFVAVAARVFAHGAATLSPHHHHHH

human IL-12 [5] = target: T2, human IL-12; assay: ELISA, human IL-12 coated on the plate; antibody concentration not given [Binding to Human IL-12]
[6] = target: T1, human dimeric IL-23 (eBiosciences …); assay: cell-based or functional assay; remark: listed apart in the source
[7] = target: T1, human dimeric IL-23 (eBiosciences …); assay: cell-based or functional assay; remark: listed apart in the source
[8] = target: T1, human dimeric IL-23 (eBiosciences …); assay: SPR; format for the anti-IL-23 scFv alone not described
monkey IL-12 (macaque) [9] = target: T5, monkey IL-12 (macaque) (macaque, UniProt P48091 23-219; P48095 23-328); assay: cell-based or functional assay
T5 sequence (looked up) 1: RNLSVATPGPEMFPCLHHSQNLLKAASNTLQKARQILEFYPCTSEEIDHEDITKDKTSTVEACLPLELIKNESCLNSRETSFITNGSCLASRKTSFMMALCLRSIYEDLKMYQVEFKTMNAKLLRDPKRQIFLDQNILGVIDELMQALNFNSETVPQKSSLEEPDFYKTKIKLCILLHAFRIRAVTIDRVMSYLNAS
T5 sequence (looked up) 2: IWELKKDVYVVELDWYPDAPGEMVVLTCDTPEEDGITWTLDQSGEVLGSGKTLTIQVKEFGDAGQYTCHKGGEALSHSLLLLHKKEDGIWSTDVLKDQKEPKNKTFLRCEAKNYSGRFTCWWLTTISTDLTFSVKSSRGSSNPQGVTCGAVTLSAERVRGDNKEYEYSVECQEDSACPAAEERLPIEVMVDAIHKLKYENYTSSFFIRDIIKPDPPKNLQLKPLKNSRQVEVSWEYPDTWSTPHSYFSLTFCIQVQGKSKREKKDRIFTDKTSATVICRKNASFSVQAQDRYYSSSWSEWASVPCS

monkey IL-12 (macaque) [10] = target: T5, monkey IL-12 (macaque); assay: cell-based or functional assay; remark: listed apart in the source
human IL-6 [11] = target: T6, human IL-6 (human, UniProt P05231 30-212); assay: cell-based or functional assay
Primate IL-6 = target: T7, Primate IL-6 (Macaca mulatta, UniProt P51494); assay: cell-based or functional assay
T7 sequence (cytokine, looked up): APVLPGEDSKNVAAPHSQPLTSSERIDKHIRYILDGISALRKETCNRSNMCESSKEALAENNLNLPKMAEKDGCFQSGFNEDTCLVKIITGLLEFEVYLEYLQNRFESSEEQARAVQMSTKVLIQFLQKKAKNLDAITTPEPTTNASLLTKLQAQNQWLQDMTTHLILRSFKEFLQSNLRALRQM

human IL-6 [12] = target: T6, human IL-6; assay: cell-based or functional assay; remark: listed apart in the source
human IL-6 [13] = target: T6, human IL-6; assay: SPR (SensiQ Pioneer), mAb captured on protein G, IL-6 as analyte (3×FLAG-IL-6 or IL-6 CYT-213, 1-100 nM), 25 C, 1:1 model
Procedure: Equilibrium constants for rabbit human chimeric mAbs were determined by binding the mAb to the protein G coated chip followed by binding of each analyte (IL-6 or IL-23) to its respective mAb. In order to minimize mass transfer effects, the surface densities of the mAbs for each analyte were adjusted so that as analyte binding approached saturation its corresponding RU fell between 200 and 300. […] For each binding and dissociation cycle the chip surface was regenerated with 15 uL of 20 mM NaOH (5671-02, Mallinckrodt Baker, Philliphsburg, N.J.). The assay temperature was maintained at 25° C. with an analyte flow rate of 50 μL/min and included a 2 minute association phase and 10-30 minute dissociation phase. The on/off rates (kₐ/kd) and dissociation constants (KD) were determined using the format described above along with pseudo-first-order 1:1 interaction model software (Qdat, ICx Nomadics, Stillwater, Okla.).

B1: 1H1 chimeric mAb (antibody, V domains shown)
VH: QELKESGGRLVTPGGSLTLSCTASGLTLGSYSMTWVRQAPGKGLEWMGVIGVGGTLNYASWAQGRFTISKPSSTTVDLKMTSLTTEDTATYFCARGTYSGDSIWGPGTLVTVSS
VL: DVVMTQTPSSTSAAVGGTVTIKCQASQSISSWLAWYQQKPGQPPKPLIVRASILTSGVPSRFKGSRSGTEYTLTISGVQREDAATYYCLGGDGHVSNFGGGTELEILR
notes: Rabbit/human chimeric IgG (human IgG1, kappa); HEK293; also called mAb 1H1
- EC50: concentration necessary to inhibit bioactivity of 50 pg/ml of IL-6 [1]: 0.603 ng/mL
- IC50 (read off the curve) (IL-17 from mouse splenocytes, OD450) [2]: ~1 ng/mL
- binding result (human IL-12 [3]): binds
- binding result (IL-23 p40-p19-His): binds
- IC50 (read off the curve) (IL-17 from mouse splenocytes, OD450) [4]: ~1 ng/mL

B5: 9C8 Hum scFv v3-2 (scFv)
scFv: DIQMTQSPSSVSASVGDRVTITCQASQSISNELSWYQQKPGKAPKLLIYRTSTLASGVPSRFSGSGSGTDFTLTISSLQPEDFATYYCQQGYNSNDVDNVFGGGTKVEIKGGGGSGGGGSGGGGSGGGGSEVQLVESGGGLVQPGGSLRLSCAASGIDLSSYDMSWVRQAPGKGLEWVGYIYTDSSTYYANWAKGRFTISRDNSKNTLYLQMNSLRAEDTAVYYCARGSTDYAFDTRLDLWGQGTLVTVSSGPPPPPHHHHHH
- IC50 (read off the curve) (B9 proliferation, OD570-600) (human IL-6 [11]): ~0.7 ng/mL

B6: 18D4 chimeric mAb (antibody, V domains shown)
VH: QSVEESGGRLVTPGTPLTLTCTVSGFSLSSYAMTWVRQAPGKGLEWIGTSYVYSGDTWYASWVKGRFTISKTSTTVDLKITSPTTEDTATYFCARVGDYDDYGAHDVFDSWGPGTLVTVSS
VL: YDMTQTPASVEVAVGGTVTIKCQASESISSWLSWYQQKPGQRPKLLLYRASTLASGVSSRFSGSGYGTEFTLTISGVQCEDAATYYCQQGYTGGNVDNAFGGGTKVVVVR
notes: Rabbit/human chimeric IgG (human IgG1, kappa); HEK293; also called 18D4 clone
- IC50 (read off the curve) (B9 proliferation, OD570-600) (Primate IL-6): ~4 ng/mL
- EC50, inhibition of IL-6 induced B9 cell proliferation (human IL-6 [12]): 0.054 ng/mL
- Kd (human IL-6 [13]): 0.128 nM
- koff (human IL-6 [13]): 8.49e-05 s⁻¹
- kon (human IL-6 [13]): 666000 M⁻¹ s⁻¹

Other lines, results leading:

- binding result (human IL-12 [5]): binds
- EC50, inhibition of IL-23 induced IL-17 secretion by mouse spleen cells [1]: 0.988 ng/mL
- IC50 (read off the curve) (IL-17 from mouse splenocytes, OD450) [2]: ~0.6 ng/mL
B2: 49B7 chimeric mAb (antibody, V domains shown)
VH: QSLEESGGRLVTPGGSLTLTCTVSGIDLSDYDMSWVRQAPGKGLEWIGIVYDIGTIYYAPWAEGRFTISKTSTTVDLKMSSLTTEDTATYFCAREAPGYSDGDIWGPGTLVTVSS
VL: ALVMTQTPSSVSAAVGGTVTINCQASETVDNNKRLSWYQQKPGQPPKLLIYGAATLASGVPSRFKGSGSGAHFTLTISNVQREDAATYVCGGYKDSTDVGFGGGTELEILR
notes: Rabbit/human chimeric IgG (human IgG1, kappa); HEK293

- EC50 (pg/mL) of the folded scFv-PEG [6]: 1040 pg/mL
B3: 31A12c-PEG20 (scFv)
scFv: DIQLTQSPSFLSASVGDRVTITCQASEDIESYLAWYQQKPGKAPKLLIYSASTLTSGVPSRFSGSGSGTEFTLTISSLQPEDFATYYCLGADDTTTVFGGGTKVEIKGGGGSGGGGSGGGGSGGGGSEVQLVESGGGLVQPGGSLRLSCTASGFSLSSYWLTWVRQAPGKGLEWVGTIATSSTYYASWAKGRFTISRDNSKNTLYLQLNSLRAEDTAVYYCARGLTTDYDLDLWGQGTLVTVSS
modifications: C-terminal azidohomoalanine (Aha) conjugated to 20 kDa linear PEG bis-alkyne

- EC50, inhibition of IL-23 induced IL-17 secretion by mouse spleen cells [7]: 1.37 ng/mL
- Kd [8]: 0.092 nM
- koff [8]: 7.11e-05 s⁻¹
- kon [8]: 773000 M⁻¹ s⁻¹
- IC50 (read off the curve) (monkey IL-12 (macaque) [9]): ~10 ng/mL
- IC50 (read off the curve) (interferon-gamma from NK92 cells, OD450) (monkey IL-12 (macaque) [10]): ~10 ng/mL
B4: 31A12 humanized scFv (mammalian expressed) (scFv)
scFv: DIQLTQSPSFLSASVGDRVTITCQASEDIESYLAWYQQKPGKAPKLLIYSASTLTSGVPSRFSGSGSGTEFTLTISSLQPEDFATYYCLGADDTTTVFGGGTKVEIKGGGGSGGGGSGGGGSGGGGSEVQLVESGGGLVQPGGSLRLSCTASGFSLSSYWMTWVRQAPGKGLEWVGTIATSSTYYASWAKGRFTISRDNSKNTLYLQMNSLRAEDTAVYYCARGLTTDYDLDLWGQGTLVTVSSGPPPPHHHHHH
notes: also called Anti IL-23 31A12 scFv; 31A12 scFv
